Assay results: patent US11278600B2, “Human alpha-galactosidase variants” (Codexis, Inc., priority 2014, dated 2022)

Assays:
Type in all cases: biochemical
[1] = HTP-analysis of supernatants pretreated with base (MUGal hydrolysis); conditions: challenge at pH 7.1; activity of the variant/activity of WT GLA (SEQ ID NO: 5); yeast supernatant
Method in brief: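 Supernatants from INVSc1 yeast expressing GLA variants (SD-Ura, 66-84 h, 30° C) were mixed with McIlvaine buffer pH 7.0-8.2 or 200 mM sodium bicarbonate pH 9.1-9.7 and held 1-18 h at 37° C. Residual activity was then measured on MUGal at pH 4.8/4.3, 37° C, 30-180 min, by fluorescence (Ex 355/Em 448 nm).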

[2] = HTP-analysis of supernatants pretreated with acid (MUGal hydrolysis); conditions: challenge at pH 4.2; activity of the variant/activity of WT GLA (SEQ ID NO: 5); yeast supernatant
Method in brief: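 MUGal hydrolysis was tracked by fluorescence (Ex 355 nm, Em 448 nm) after a 30-180 min reaction at 37° C. in pH 4.8 McIlvaine/citrate buffer, stopped with 1 M sodium carbonate. Beforehand, yeast (INVSc1) culture supernatants carrying GLA variants were held 1-3 h at 37° C. in acidic McIlvaine buffer, pH 3.3-4.3.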

[3] = HTP-analysis of yeast culture supernatants, no challenge (MUGal hydrolysis); conditions: activity of the variant/activity of WT GLA (SEQ ID NO: 5), yeast supernatant
Method in brief: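 GLA variants were expressed in INVSc1 yeast grown in SD-Ura broth with glucose at 30° C., and culture supernatants were collected after 66-84 h. Supernatant was mixed with McIlvaine buffer pH 4.8 and MUGal (2 mM stock) in 50 mM citrate, 200 mM KCl, pH 4.6, incubated at 37° C. for 30-180 minutes, then quenched with sodium carbonate.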

Molecule | Relative Activity of GLA Variants After Challenge at pH 7.1 [1] | Relative Activity of GLA Variants After Challenge at pH 4.2 [2] | Relative Activity of GLA Variants After No Challenge (NC) [3]
42 (protein, Synthetic Polypeptide sequence of Variant No. 42 of mature Human GLA) LDNGLARTPTMGWLHWERFMCNLDCQEEPDSCISEKLFMEMAELMVSEGWKDAGYEYLCIDDCWMAPQRDSEGRLQADPQRFPHGIRQLANYVHSKGLKLGIYADVGNKTCAGFPGSFGYYDIDAQTFADWGVDLLKFDGCYCDSLENLADGYKHMSLALNRTGRSIVYSCEWPLYMWPFQKPNYTEIRQYCNHWRNFADIDDSWKSIKSILDWTSFNQERIVDVAGPGGWNDPDMLVIGNFGLSWNQQVTQMALWAIMAAPLFMSNDLRHISPQAKALLQDKDVIAINQDPLGKQGYQLRQGDNFEVWERPLSGLAWAVAMINRQEIGGPRSYTIAVASLGKGVACNPACFITQLLPVKRKLGFYNWTSRLRSHINPTGTVLLQLENTMQMSKDLLL | +++ (+++ = >2.5 relative activity over WT GLA (SEQ ID NO: 5)) | +++ (+++ = >2.5 relative activity over WT GLA (SEQ ID NO: 5)) | +++ (+++ = >2.5 relative activity over WT GLA (SEQ ID NO: 5))
44 (protein, Synthetic Polypeptide sequence of Variant No. 44 of mature Human GLA) LDNGLARTPTMGWLHWERFMCNLDCQEEPDSCISEKLFMEMAELMVSEGWKDAGYEYLCIDDCWMAPQRDSEGRLQADPQRFPHGIRQLANYVHSKGLKLGIYADVGNKTCAGFPGSFGYYDIDAQTFADWGVDLLKFDGCYCDSLENLADGYKHMSLALNRTGRSIVYSCEWPLYMWPFQKPNYTEIRQYCNHWRNFADIDDSWKSIKSILDWTSFNQERIVDVAGPGGWNDPDMLVIGNFGLSWNQQVTQMALWAIMAAPLFMSNDLRHISPQAKALLQDKDVIAINQDPLGKQGYQLRQGDNFEVWERPLSGLAWAVAMINRQEIGGPRSYTIAVASLGKGVACNPACFITQLLPVKRKLGFYEWTSRLRSHINPTGTVLLQLKNTMQMSKDLLL | + (+ = 0.5 to 1.5 relative activity over WT GLA (SEQ ID NO: 5)) | ++ (++ = >1.5 to 2.5 relative activity over WT GLA (SEQ ID NO: 5)) | + (+ = 0.5 to 1.5 relative activity over WT GLA (SEQ ID NO: 5))
43 (protein, Synthetic Polypeptide sequence of Variant No. 43 of mature Human GLA) LDNGLARTPTMGWLHWERFMCNLDCQEEPDSCISEKLFMEMAELMVSEGWKDAGYEYLCIDDCWMAPQRDSEGRLQADPQRFPHGIRQLANYVHSKGLKLGIYADVGNKTCAGFPGSFGYYDIDAQTFADWGVDLLKFDGCYCDSLENLADGYKHMSLALNRTGRSIVYSCEWPLYMWPFQKPNYTEIRQYCNHWRNFADIDDSWKSIKSILDWTSFNQERIVDVAGPGGWNDPDMLVIGNFGLSWNQQVTQMALWAIMAAPLFMSNDLRHISPQAKALLQDKDVIAINQDPLGKQGYQLRQGDNFEVWERPLSGLAWAVAMINRQEIGGPRSYTIAVASLGKGVACNPACFITQLLPVKRKLGFYTWTSRLRSHINPTGTVLLQLENTMQMSKDLLL | + (+ = 0.5 to 1.5 relative activity over WT GLA (SEQ ID NO: 5)) | + (+ = 0.5 to 1.5 relative activity over WT GLA (SEQ ID NO: 5)) | + (+ = 0.5 to 1.5 relative activity over WT GLA (SEQ ID NO: 5))
